Values quoted from earlier work as cited in patent US11911476B2, “Process for preparing a drug delivery composition” (PK MED SAS, priority 2017, dated 2024).

Details: temperature at which half of the drug loses its activity

Row | Substance | denaturation temperature
1 | Adalimumab | about 75 °C
2 | lysozyme | 76 °C
